From PMC10784468 (Nature Communications, 2024)
Positions of bridges follow the written chain, without caps; N, C: chain ends. Residues, ends and D or L forms follow the SMILES beside them. *: point of attachment. X1 = O=C(O)c1ccc(-c2c3nc(c(-c4ccc(C(=O)O)cc4)c4ccc([nH]4)c(-c4ccc(C(=O)*)cc4)c4nc(c(-c5ccc(C(=O)O)cc5)c5ccc2[nH]5)C=C4)C=C3)cc1; X2 = O=C(O)C/C(=C/C(=O)*)C(=O)O

What was measured:
[1] = Critical aggregation concentration (pyrene probe, I338/I335); format: physicochemical; details: for I338/I335 (pyrene): pyrene 6 μM, emission 393 nm; for critical aggregation concentration (CAC): pyrene probe, I338/I335, PBS 0.01 M, pH 7.4
Method: The CACs were determined using pyrene as a fluorescent probe. In brief, 50 μL of pyrene solution in acetone (480 μM) was added to a 5 mL centrifuge tube, followed by adding a series of peptide-porphyrin conjugate solutions with different concentrations, and the tube was kept overnight to evaporate the acetone completely, the concentration of pyrene being fixed at 6 μM at last. The excitation spectra of the solutions were recorded with the emission wavelength fixing at 393 nm, and the intensity ratio (I338/I335) was calculated as a function of the concentration. The CAC was determined based on the intersection point at low concentration on the plot.

[2] = Hydrolysis of the peptide-porphyrin conjugates at pH 7.4 and 6.5 (dialysis, HPLC); format: physicochemical; details: for Hydrolysis of CAA (%): 37 °C, dialysis MWCO 1000 Da, released CAA by HPLC, mean of n = 3; for Hydrolysis of SA (%): mean
Method: In vitro hydrolysis analysis of the peptide-porphyrin conjugates was studied in pH values of 7.4 and 6.5 solutions. 20 mg of peptide-porphyrin conjugate was dissolved in 2 mL pH 7.4 buffer solution, which was then transferred into a dialysis bag (MWCO: 1000 Da) and immersed in 25 mL of different pH buffer solutions at 37 °C with continuous shaking respectively. At fixed time intervals (20 min, 40 min, 1 h, 2 h and 4 h), […] chromatography (HPLC, WATERS Alliance HPLC e2489), and an equal volume of fresh buffer solution was replaced to the system. In order to determine the CAA concentration according to the peak area of the CAA, a standard curve of the CAA was plotted, with the peak area as a function of the concentration. […]

[3] = Morphology and size by TEM; format: physicochemical; details: PBS 0.01 M, pH 6.5, 1 h, 40 μM
Method: Nano-ZS 3600 (Malvern Instruments, UK) was used to measure the size distribution of the peptide-porphyrin conjugate solutions. The conjugate solutions (40 μM) were incubated at pH 7.4 or pH 6.5 before measurements. An average value was determined by three repeated measurements at 25 °C for each sample. Besides, transmission electron microscopy (TEM, Tecnai G2 20 S-TWIN) was conducted to observe the morphology and diameters of conjugates in aqueous solution, The conjugates (50 μL, 40 μM) were kept in PB solution at pH 7.4 or pH 6.5, which were dropped on copper meshes. After 5 min, unnecessary liquid was removed and the uranyl acetate solution (10 μL) was dropped on this copper mesh to stain the samples for 10 min. Finally, the copper meshes were washed with deionized water, and dried at room temperature for observation.

EJ cells [4] = assay: Intracellular LPO fluorescence imaging (C11-BODIPY); format: cell-based; details: pH 6.5, 40 μM, 8 h
Method: Initially, EJ cells (5 × 10^5) were cultured in confocal dish with a CO2 incubator overnight at 37 °C. […] Next, EJ cells were collected and washed with PBS for 3 times.

EJ cells [5] = assay: Intracellular LPO content (MDA kit); format: cell-based
Method: Initially, EJ cells (5 × 10^5) were cultured in 6-well plate with a CO2 incubator overnight at 37 °C. […] Next, EJ cells were collected and washed with PBS for 3 times. Afterwards, the cell lysates were collected by centrifugation at 8000 g for 10 min at 4 °C after lysed by freeze-thaw treatment. Finally, the LPO contents were measured by thiobarbituric acid (TBA) reaction with a Malondialdehyde (MDA) Assay Kit based on the manufacturer’s instructions.

[6] = test system: MCF-7/MDR xenograft tumors; assay: In vivo antitumor evaluation in MCF-7/MDR xenografted model
Source text: Female BALB/c nude mice (~8 weeks, 18 g) were subcutaneously inoculated with 5 × 10^6 MCF-7/MDR cells resuspended in Matrigel. […] Individual tumor volume and bodyweight of mouse after different treatment was collected at 2-days intervals for analysis. Mice were killed at 20 days post treatment unless endpoints were exceeded. Moreover, tumors from all groups were harvested under euthanasia and weighed for analysis at the end of treatment.

PTGS2 = assay: Tumor PTGS2 content detection; format: in vivo, BALB/c nude mice; details: EJ tumor tissues, 8 mg/kg i.v., versus PBS, Gi-F and Gi-F-SA
Method: EJ tumor tissues were collected under euthanasia at the end of treatment and washed with PBS for 3 times. Afterwards, the immunofluorescence analyses of Prostaglandin-Endoperoxide Synthase 2 (PTGS2) expression were performed with Wuhan Servicebio Technology Co., Ltd.

For `CC(C)C[C@H](NC(=O)c1ccc(-c2c3nc(c(-c4ccc(C(=O)O)cc4)c4ccc([nH]4)c(-c4ccc(C(=O)O)cc4)c4nc(c(-c5ccc(C(=O)O)cc5)c5ccc2[nH]5)C=C4)C=C3)cc1)C(=O)N[C@@H](CCCCNC(=O)/C=C(/CC(=O)O)C(=O)O)C(=O)N[C@@H](CC(C)C)C(=O)N[C@@H](CCCCN)C(=O)N[C@@H](CC(C)C)C(=O)N[C@@H](CCCCNC(=O)/C=C(/CC(=O)O)C(=O)O)C(=O)NCC(=O)N[C@@H](C)C(=O)N[C@H]1CSSC[C@@H](C(=O)N2CCC[C@H]2C(=O)N[C@H](C(=O)O)C(C)C)NC(=O)[C@@H]2CCCN2C(=O)[C@H](Cc2ccc(O)cc2)NC(=O)[C@H](CC(C)C)NC(=O)[C@@H]2CCCN2C(=O)[C@H](CC(C)C)NC(=O)[C@H](Cc2c[nH]c3ccccc23)NC(=O)[C@H](CC(N)=O)NC1=O` [Gi-F-CAA] (X1-LK(X2)LKLK(X2)GACNWLPLYPCPV-OH; disulfide 9-17; C-terminus assumed), the “I338/I335 (pyrene)” value ([1]; conjugate 0.97656 μM) was 0.974, the “I338/I335 (pyrene)” value ([1]; conjugate 1.95313 μM) was 0.9716 and the “I338/I335 (pyrene)” value ([1]; conjugate 3.90625 μM) was 0.9744. For the same molecule, the “I338/I335 (pyrene)” value ([1]; conjugate 7.8125 μM) was 0.9774, the “I338/I335 (pyrene)” value ([1]; conjugate 15.625 μM) was 0.9762 and the “I338/I335 (pyrene)” value ([1]; conjugate 31.25 μM) was 0.9729. For the same molecule, the “I338/I335 (pyrene)” value ([1]; conjugate 62.5 μM) was 0.9783, the “I338/I335 (pyrene)” value ([1]; conjugate 125 μM) was 0.9903 and the “I338/I335 (pyrene)” value ([1]; conjugate 250 μM) was 1.02. The “I338/I335 (pyrene)” value ([1]; conjugate 500 μM) was 1.0656, the “I338/I335 (pyrene)” value ([1]; conjugate 1000 μM) was 1.12 and the “critical aggregation concentration (CAC)” value [1] was 149.5 µM. For the same molecule, the “Hydrolysis of CAA (%)” value ([2]; pH 6.5 buffer, 0 min) was 0%, the “Hydrolysis of CAA (%)” value ([2]; pH 6.5 buffer, 20 min) was 17.6% and the “Hydrolysis of CAA (%)” value ([2]; pH 6.5 buffer, 40 min) was 43.7%. For the same molecule, the “Hydrolysis of CAA (%)” value ([2]; pH 6.5 buffer, 60 min) was 53.6%, the “Hydrolysis of CAA (%)” value ([2]; pH 6.5 buffer, 120 min) was 56.9% and the “Hydrolysis of CAA (%)” value ([2]; pH 6.5 buffer, 240 min) was 57.5%. For the same molecule, the “Hydrolysis of CAA (%)” value ([2]; pH 7.4 buffer, 0 min) was 0%, the “Hydrolysis of CAA (%)” value ([2]; pH 7.4 buffer, 20 min) was 3.1% and the “Hydrolysis of CAA (%)” value ([2]; pH 7.4 buffer, 40 min) was 10.9%. For the same molecule, the “Hydrolysis of CAA (%)” value ([2]; pH 7.4 buffer, 60 min) was 12.1%, the “Hydrolysis of CAA (%)” value ([2]; pH 7.4 buffer, 120 min) was 13.1% and the “Hydrolysis of CAA (%)” value ([2]; pH 7.4 buffer, 240 min) was 14.3%. The “particle size (TEM)” value [3] was 57 ± 9 nm, the “intracellular LPO (BODIPY 581/591 C11)” value (EJ cells [4]) was “extensive accumulation of LPO” and the “Relative MDA levels” value (EJ cells [5]; pH=6.5, replicate #1) was 4.36. For the same molecule, the “Relative MDA levels” value (EJ cells [5]; pH=6.5, replicate #2) was 4.44, the “Relative MDA levels” value (EJ cells [5]; pH=6.5, replicate #3) was 4.68 and the “Relative MDA levels” value (EJ cells [5]; pH=7.4, replicate #1) was 1.72. The “Relative MDA levels” value (EJ cells [5]; pH=7.4, replicate #2) was 1.84, the “Relative MDA levels” value (EJ cells [5]; pH=7.4, replicate #3) was 2.24 and the “mean tumor volume at 20 days post injection” value ([6]; MCF-7/MDR xenograft, six i.v. injections every 2 days, Gi-F-CAA 8 mg/kg, DOX and CPT 3 mg/kg, n = 6) was 623 mm^3. It also gave a TGI rate ([6]; MCF-7/MDR xenograft, six i.v. injections, Gi-F-CAA 8 mg/kg, DOX and CPT 3 mg/kg, 20 days) of 66%, a Tumor weight ([6]; mice 1) of 0.59 g and a Tumor weight ([6]; mice 2) of 0.52 g. For the same molecule, the Tumor weight ([6]; mice 3) was 0.51 g, the Tumor weight ([6]; mice 4) was 0.35 g and the Tumor weight ([6]; mice 5) was 0.37 g. For the same molecule, the Tumor weight ([6]; mice 6) was 0.54 g and the “PTGS2 levels of tumor tissues” value (PTGS2) was “elevation”.
For “FeTCPP-LKLKLK(SA)GACNWLPLYPCPV (disulfide) [Gi-F-SA, control conjugate decorated with non-sensitive succinic anhydride (SA) moieties]”, the “Hydrolysis of SA (%)” value ([2]; pH 6.5, 0 min) was 0%, the “Hydrolysis of SA (%)” value ([2]; pH 6.5, 20 min) was 1.1% and the “Hydrolysis of SA (%)” value ([2]; pH 6.5, 40 min) was 1.9%. The “Hydrolysis of SA (%)” value ([2]; pH 6.5, 60 min) was 2.1%, the “Hydrolysis of SA (%)” value ([2]; pH 6.5, 120 min) was 2.1% and the “Hydrolysis of SA (%)” value ([2]; pH 6.5, 240 min) was 2.3%. For the same molecule, the “hydrolysis at pH 6.5 and 7.4” value ([2]; pH 6.5 and 7.4, HPLC, Supplementary Fig. 11) was “little hydrolysis”, the “Hydrolysis of SA (%)” value ([2]; pH 7.4, 0 min) was 0% and the “Hydrolysis of SA (%)” value ([2]; pH 7.4, 20 min) was 1%. The “Hydrolysis of SA (%)” value ([2]; pH 7.4, 40 min) was 1.2%, the “Hydrolysis of SA (%)” value ([2]; pH 7.4, 60 min) was 1.6% and the “Hydrolysis of SA (%)” value ([2]; pH 7.4, 120 min) was 1.9%. For the same molecule, the “Hydrolysis of SA (%)” value ([2]; pH 7.4, 240 min) was 2.4%, the “Relative MDA levels” value (EJ cells [5]; pH=7.4, replicate #1) was 2.76 and the “Relative MDA levels” value (EJ cells [5]; pH=7.4, replicate #2) was 2.24. The “Relative MDA levels” value (EJ cells [5]; pH=7.4, replicate #3) was 2.
With “FeTCPP-LKLKLKGACNWLPLYPCPV (disulfide) [Gi-F]” the “I338/I335 (pyrene)” value ([1]; conjugate 0.97656 μM) was 0.9792, the “I338/I335 (pyrene)” value ([1]; conjugate 1.95313 μM) was 0.979 and the “I338/I335 (pyrene)” value ([1]; conjugate 3.90625 μM) was 0.9785. The “I338/I335 (pyrene)” value ([1]; conjugate 7.8125 μM) was 0.9903, the “I338/I335 (pyrene)” value ([1]; conjugate 15.625 μM) was 1.011 and the “I338/I335 (pyrene)” value ([1]; conjugate 31.25 μM) was 1.031. The “I338/I335 (pyrene)” value ([1]; conjugate 62.5 μM) was 1.099, the “I338/I335 (pyrene)” value ([1]; conjugate 125 μM) was 1.141 and the “I338/I335 (pyrene)” value ([1]; conjugate 250 μM) was 1.203. For the same molecule, the “I338/I335 (pyrene)” value ([1]; conjugate 500 μM) was 1.248, the “I338/I335 (pyrene)” value ([1]; conjugate 1000 μM) was 1.254 and the “critical aggregation concentration (CAC)” value [1] was 13.8 µM.
